Test results: US20260167699A1 (Chugai, published 2026)

T1: FcγRIIa(R) extracellular domain, C-terminal His tag (human, UniProt P12318 34-217)
T1 construct: extracellular domain; also called 2aR
T1 sequence: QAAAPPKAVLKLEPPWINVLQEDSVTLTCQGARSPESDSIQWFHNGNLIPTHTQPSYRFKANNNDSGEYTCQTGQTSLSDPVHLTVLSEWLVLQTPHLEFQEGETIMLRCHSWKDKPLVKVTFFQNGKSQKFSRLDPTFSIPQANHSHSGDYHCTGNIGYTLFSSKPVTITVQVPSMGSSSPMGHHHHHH

T2: FcγRIIa(H) extracellular domain, C-terminal His tag (human, UniProt P12318 34-217)
T2 construct: extracellular domain; also called 2aH
T2 sequence: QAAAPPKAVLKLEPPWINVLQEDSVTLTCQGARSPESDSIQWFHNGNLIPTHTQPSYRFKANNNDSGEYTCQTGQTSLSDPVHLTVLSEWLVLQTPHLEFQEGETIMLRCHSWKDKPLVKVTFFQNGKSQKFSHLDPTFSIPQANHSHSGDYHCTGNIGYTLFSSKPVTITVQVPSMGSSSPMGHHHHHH

T3: FcγRIIb extracellular domain, C-terminal His tag (human, UniProt P31994 43-217)
T3 construct: extracellular domain; also called 2b
T3 sequence: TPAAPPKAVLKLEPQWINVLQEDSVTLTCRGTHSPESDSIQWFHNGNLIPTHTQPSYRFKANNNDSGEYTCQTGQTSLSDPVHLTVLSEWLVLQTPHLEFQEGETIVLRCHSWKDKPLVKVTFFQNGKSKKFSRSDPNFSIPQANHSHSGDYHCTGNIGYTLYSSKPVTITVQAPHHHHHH


Experiments:
Assay in all cases: SPR; He Ab vs HeCon Ab (GpH7-A5/GpH7-B3/GpL16-k0)=100;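 also: surface plasmon resonance at 25 °C with the test antibody captured on a sensor chip via antigenic peptide, protein L or protein A/G and FcγR flowed over as analyte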
[1] = biological target: T4, FcγRIa extracellular domain, C-terminal His tag (human, UniProt P12314 16-292)
T4 construct: extracellular domain; also called 1a

[2] = biological target: T1, FcγRIIa(R) extracellular domain, …
[3] = biological target: T2, FcγRIIa(H) extracellular domain, …
[4] = biological target: T3, FcγRIIb extracellular domain, …
[5] = biological target: T5, FcγRIIIa extracellular domain, C-terminal His tag (human, UniProt P08637 17-208)
T5 construct: extracellular domain; also called 3a
T5 sequence (P08637 other isoform, or with tags, fused parts or gaps): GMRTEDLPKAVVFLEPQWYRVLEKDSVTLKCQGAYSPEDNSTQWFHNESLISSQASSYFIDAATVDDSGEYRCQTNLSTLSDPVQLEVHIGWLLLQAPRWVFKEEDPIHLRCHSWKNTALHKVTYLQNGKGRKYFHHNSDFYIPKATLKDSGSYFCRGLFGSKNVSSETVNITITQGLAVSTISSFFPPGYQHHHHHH

T4 sequence (P12314 other isoform, or with tags, fused parts or gaps): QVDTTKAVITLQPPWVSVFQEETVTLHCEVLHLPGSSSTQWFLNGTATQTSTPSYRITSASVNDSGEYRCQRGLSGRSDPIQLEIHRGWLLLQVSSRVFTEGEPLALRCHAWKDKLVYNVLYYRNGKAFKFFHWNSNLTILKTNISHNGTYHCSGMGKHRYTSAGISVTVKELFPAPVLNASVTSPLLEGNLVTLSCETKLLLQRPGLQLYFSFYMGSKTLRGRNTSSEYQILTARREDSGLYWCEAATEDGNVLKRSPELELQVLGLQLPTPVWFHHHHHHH

Row | Binder | He/Con 1a [1] | He/Con 2aR [2] | He/Con 2aH [3] | He/Con 2b [4] | He/Con 3a [5]
1 | GpH7-A5/GpH7-B3 variant S324_09D/GpL16-k0 (antibody, human IgG1, kappa, heterodimerized IgG1, one H chain mutated; also called He Ab; copies: 1 + 1 + 2) heavy 1: not shown heavy 2: not shown light: DIVMTQSPLSLPVTPGEPASISCQASESLVHSNRNTYLHWYLQKPGQSPQLLIYKVSNRFSGVPDRFSGSGSGTDFTLKISRVEAEDVGVYYCSQNTHVPPTFGQGTKVEIERTVAAPSVFIFPPSDEQLKSGTASVVCLLNNFYPREAKVQWKVDNALQSGNSQESVTEQDSKDSTYSLSSTLTLSKADYEKHKVYACEVTHQGLSSPVTKSFNRGEC | 97.7% | 102% | 117% | 112% | 110%
2 | GpH7-A5/GpH7-B3 variant Y296_02A/GpL16-k0 (antibody, human IgG1, kappa, heterodimerized IgG1, one H chain mutated; also called He Ab; copies: 1 + 1 + 2) heavy 1: not shown heavy 2: not shown light: DIVMTQSPLSLPVTPGEPASISCQASESLVHSNRNTYLHWYLQKPGQSPQLLIYKVSNRFSGVPDRFSGSGSGTDFTLKISRVEAEDVGVYYCSQNTHVPPTFGQGTKVEIERTVAAPSVFIFPPSDEQLKSGTASVVCLLNNFYPREAKVQWKVDNALQSGNSQESVTEQDSKDSTYSLSSTLTLSKADYEKHKVYACEVTHQGLSSPVTKSFNRGEC | 99.8% | 93% | 89.1% | 83.1% | 66.3%
3 | GpH7-A5/GpH7-B3 variant S324_12R/GpL16-k0 (antibody, human IgG1, kappa, heterodimerized IgG1, one H chain mutated; also called He Ab; copies: 1 + 1 + 2) heavy 1: not shown heavy 2: not shown light: DIVMTQSPLSLPVTPGEPASISCQASESLVHSNRNTYLHWYLQKPGQSPQLLIYKVSNRFSGVPDRFSGSGSGTDFTLKISRVEAEDVGVYYCSQNTHVPPTFGQGTKVEIERTVAAPSVFIFPPSDEQLKSGTASVVCLLNNFYPREAKVQWKVDNALQSGNSQESVTEQDSKDSTYSLSSTLTLSKADYEKHKVYACEVTHQGLSSPVTKSFNRGEC | 95.9% | 84% | 107% | 82.4% | 98.1%
4 | GpH7-A5/GpH7-B3 variant Y296_04F/GpL16-k0 (antibody, human IgG1, kappa, heterodimerized IgG1, one H chain mutated; also called He Ab; copies: 1 + 1 + 2) heavy 1: not shown heavy 2: not shown light: DIVMTQSPLSLPVTPGEPASISCQASESLVHSNRNTYLHWYLQKPGQSPQLLIYKVSNRFSGVPDRFSGSGSGTDFTLKISRVEAEDVGVYYCSQNTHVPPTFGQGTKVEIERTVAAPSVFIFPPSDEQLKSGTASVVCLLNNFYPREAKVQWKVDNALQSGNSQESVTEQDSKDSTYSLSSTLTLSKADYEKHKVYACEVTHQGLSSPVTKSFNRGEC | 101% | 105% | 97.8% | 101% | 79.5%
5 | GpH7-A5/GpH7-B3 variant Y296_08L/GpL16-k0 (antibody, human IgG1, kappa, heterodimerized IgG1, one H chain mutated; also called He Ab; copies: 1 + 1 + 2) heavy 1: not shown heavy 2: not shown light: DIVMTQSPLSLPVTPGEPASISCQASESLVHSNRNTYLHWYLQKPGQSPQLLIYKVSNRFSGVPDRFSGSGSGTDFTLKISRVEAEDVGVYYCSQNTHVPPTFGQGTKVEIERTVAAPSVFIFPPSDEQLKSGTASVVCLLNNFYPREAKVQWKVDNALQSGNSQESVTEQDSKDSTYSLSSTLTLSKADYEKHKVYACEVTHQGLSSPVTKSFNRGEC | 101% | 93.7% | 86.9% | 83.5% | 72.4%
6 | GpH7-A5/GpH7-B3 variant S324_11K/GpL16-k0 (antibody, human IgG1, kappa, heterodimerized IgG1, one H chain mutated; also called He Ab; copies: 1 + 1 + 2) heavy 1: not shown heavy 2: not shown light: DIVMTQSPLSLPVTPGEPASISCQASESLVHSNRNTYLHWYLQKPGQSPQLLIYKVSNRFSGVPDRFSGSGSGTDFTLKISRVEAEDVGVYYCSQNTHVPPTFGQGTKVEIERTVAAPSVFIFPPSDEQLKSGTASVVCLLNNFYPREAKVQWKVDNALQSGNSQESVTEQDSKDSTYSLSSTLTLSKADYEKHKVYACEVTHQGLSSPVTKSFNRGEC | 96.3% | 91% | 102% | 89.6% | 90.2%
7 | GpH7-A5/GpH7-B3 variant S324_19Q/GpL16-k0 (antibody, human IgG1, kappa, heterodimerized IgG1, one H chain mutated; also called He Ab; copies: 1 + 1 + 2) heavy 1: not shown heavy 2: not shown light: DIVMTQSPLSLPVTPGEPASISCQASESLVHSNRNTYLHWYLQKPGQSPQLLIYKVSNRFSGVPDRFSGSGSGTDFTLKISRVEAEDVGVYYCSQNTHVPPTFGQGTKVEIERTVAAPSVFIFPPSDEQLKSGTASVVCLLNNFYPREAKVQWKVDNALQSGNSQESVTEQDSKDSTYSLSSTLTLSKADYEKHKVYACEVTHQGLSSPVTKSFNRGEC | 106% | 86.8% | 106% | 87.2% | 96.2%

Now from value to binder:

Row | He/Con 1a [1] | He/Con 2aR [2] | He/Con 2aH [3] | He/Con 2b [4] | He/Con 3a [5] | Binder
8 | 101% | 92% | 86.9% | 80.4% | 69.1% | GpH7-A5/GpH7-B3 variant Y296_03V/GpL16-k0 (antibody, human IgG1, kappa, heterodimerized IgG1, one H chain mutated; also called He Ab; copies: 1 + 1 + 2) heavy 1: not shown heavy 2: not shown light: DIVMTQSPLSLPVTPGEPASISCQASESLVHSNRNTYLHWYLQKPGQSPQLLIYKVSNRFSGVPDRFSGSGSGTDFTLKISRVEAEDVGVYYCSQNTHVPPTFGQGTKVEIERTVAAPSVFIFPPSDEQLKSGTASVVCLLNNFYPREAKVQWKVDNALQSGNSQESVTEQDSKDSTYSLSSTLTLSKADYEKHKVYACEVTHQGLSSPVTKSFNRGEC
9 | 98.9% | 99% | 114% | 101% | 108% | GpH7-A5/GpH7-B3 variant S324_10E/GpL16-k0 (antibody, human IgG1, kappa, heterodimerized IgG1, one H chain mutated; also called He Ab; copies: 1 + 1 + 2) heavy 1: not shown heavy 2: not shown light: DIVMTQSPLSLPVTPGEPASISCQASESLVHSNRNTYLHWYLQKPGQSPQLLIYKVSNRFSGVPDRFSGSGSGTDFTLKISRVEAEDVGVYYCSQNTHVPPTFGQGTKVEIERTVAAPSVFIFPPSDEQLKSGTASVVCLLNNFYPREAKVQWKVDNALQSGNSQESVTEQDSKDSTYSLSSTLTLSKADYEKHKVYACEVTHQGLSSPVTKSFNRGEC
10 | 99.4% | 91.6% | 91.6% | 80.4% | 51.3% | GpH7-A5/GpH7-B3 variant Y296_01G/GpL16-k0 (antibody, human IgG1, kappa, heterodimerized IgG1, one H chain mutated; also called He Ab; copies: 1 + 1 + 2) heavy 1: not shown heavy 2: not shown light: DIVMTQSPLSLPVTPGEPASISCQASESLVHSNRNTYLHWYLQKPGQSPQLLIYKVSNRFSGVPDRFSGSGSGTDFTLKISRVEAEDVGVYYCSQNTHVPPTFGQGTKVEIERTVAAPSVFIFPPSDEQLKSGTASVVCLLNNFYPREAKVQWKVDNALQSGNSQESVTEQDSKDSTYSLSSTLTLSKADYEKHKVYACEVTHQGLSSPVTKSFNRGEC
11 | 107% | 107% | 114% | 115% | 110% | GpH7-A5/GpH7-B3 variant S324_15Y/GpL16-k0 (antibody, human IgG1, kappa, heterodimerized IgG1, one H chain mutated; also called He Ab; copies: 1 + 1 + 2) heavy 1: not shown heavy 2: not shown light: DIVMTQSPLSLPVTPGEPASISCQASESLVHSNRNTYLHWYLQKPGQSPQLLIYKVSNRFSGVPDRFSGSGSGTDFTLKISRVEAEDVGVYYCSQNTHVPPTFGQGTKVEIERTVAAPSVFIFPPSDEQLKSGTASVVCLLNNFYPREAKVQWKVDNALQSGNSQESVTEQDSKDSTYSLSSTLTLSKADYEKHKVYACEVTHQGLSSPVTKSFNRGEC
12 | 109% | 101% | 109% | 106% | 103% | GpH7-A5/GpH7-B3 variant S324_18N/GpL16-k0 (antibody, human IgG1, kappa, heterodimerized IgG1, one H chain mutated; also called He Ab; copies: 1 + 1 + 2) heavy 1: not shown heavy 2: not shown light: DIVMTQSPLSLPVTPGEPASISCQASESLVHSNRNTYLHWYLQKPGQSPQLLIYKVSNRFSGVPDRFSGSGSGTDFTLKISRVEAEDVGVYYCSQNTHVPPTFGQGTKVEIERTVAAPSVFIFPPSDEQLKSGTASVVCLLNNFYPREAKVQWKVDNALQSGNSQESVTEQDSKDSTYSLSSTLTLSKADYEKHKVYACEVTHQGLSSPVTKSFNRGEC
13 | 114% | 93.9% | 107% | 115% | 112% | GpH7-A5/GpH7-B3 variant S324_14T/GpL16-k0 (antibody, human IgG1, kappa, heterodimerized IgG1, one H chain mutated; also called He Ab; copies: 1 + 1 + 2) heavy 1: not shown heavy 2: not shown light: DIVMTQSPLSLPVTPGEPASISCQASESLVHSNRNTYLHWYLQKPGQSPQLLIYKVSNRFSGVPDRFSGSGSGTDFTLKISRVEAEDVGVYYCSQNTHVPPTFGQGTKVEIERTVAAPSVFIFPPSDEQLKSGTASVVCLLNNFYPREAKVQWKVDNALQSGNSQESVTEQDSKDSTYSLSSTLTLSKADYEKHKVYACEVTHQGLSSPVTKSFNRGEC
14 | 101% | 96.8% | 94.2% | 89% | 74.6% | GpH7-A5/GpH7-B3 variant Y296_06M/GpL16-k0 (antibody, human IgG1, kappa, heterodimerized IgG1, one H chain mutated; also called He Ab; copies: 1 + 1 + 2) heavy 1: not shown heavy 2: not shown light: DIVMTQSPLSLPVTPGEPASISCQASESLVHSNRNTYLHWYLQKPGQSPQLLIYKVSNRFSGVPDRFSGSGSGTDFTLKISRVEAEDVGVYYCSQNTHVPPTFGQGTKVEIERTVAAPSVFIFPPSDEQLKSGTASVVCLLNNFYPREAKVQWKVDNALQSGNSQESVTEQDSKDSTYSLSSTLTLSKADYEKHKVYACEVTHQGLSSPVTKSFNRGEC
15 | 101% | 96.7% | 92.7% | 85.5% | 75.8% | GpH7-A5/GpH7-B3 variant Y296_07I/GpL16-k0 (antibody, human IgG1, kappa, heterodimerized IgG1, one H chain mutated; also called He Ab; copies: 1 + 1 + 2) heavy 1: not shown heavy 2: not shown light: DIVMTQSPLSLPVTPGEPASISCQASESLVHSNRNTYLHWYLQKPGQSPQLLIYKVSNRFSGVPDRFSGSGSGTDFTLKISRVEAEDVGVYYCSQNTHVPPTFGQGTKVEIERTVAAPSVFIFPPSDEQLKSGTASVVCLLNNFYPREAKVQWKVDNALQSGNSQESVTEQDSKDSTYSLSSTLTLSKADYEKHKVYACEVTHQGLSSPVTKSFNRGEC
